Laboratory results published in article doi:10.1101/2022.08.09.503213 (bioRxiv, 2022).

Biological target: IFT140 with C-terminal TEV site and Strep-tag II (IFT140^Strep) (human, UniProt Q96RY7 1-1462)
Assay: pull-down

Chain of IFT140 with C-terminal TEV site and Strep-tag II (IFT140^Strep) (Q96RY7 whole entry): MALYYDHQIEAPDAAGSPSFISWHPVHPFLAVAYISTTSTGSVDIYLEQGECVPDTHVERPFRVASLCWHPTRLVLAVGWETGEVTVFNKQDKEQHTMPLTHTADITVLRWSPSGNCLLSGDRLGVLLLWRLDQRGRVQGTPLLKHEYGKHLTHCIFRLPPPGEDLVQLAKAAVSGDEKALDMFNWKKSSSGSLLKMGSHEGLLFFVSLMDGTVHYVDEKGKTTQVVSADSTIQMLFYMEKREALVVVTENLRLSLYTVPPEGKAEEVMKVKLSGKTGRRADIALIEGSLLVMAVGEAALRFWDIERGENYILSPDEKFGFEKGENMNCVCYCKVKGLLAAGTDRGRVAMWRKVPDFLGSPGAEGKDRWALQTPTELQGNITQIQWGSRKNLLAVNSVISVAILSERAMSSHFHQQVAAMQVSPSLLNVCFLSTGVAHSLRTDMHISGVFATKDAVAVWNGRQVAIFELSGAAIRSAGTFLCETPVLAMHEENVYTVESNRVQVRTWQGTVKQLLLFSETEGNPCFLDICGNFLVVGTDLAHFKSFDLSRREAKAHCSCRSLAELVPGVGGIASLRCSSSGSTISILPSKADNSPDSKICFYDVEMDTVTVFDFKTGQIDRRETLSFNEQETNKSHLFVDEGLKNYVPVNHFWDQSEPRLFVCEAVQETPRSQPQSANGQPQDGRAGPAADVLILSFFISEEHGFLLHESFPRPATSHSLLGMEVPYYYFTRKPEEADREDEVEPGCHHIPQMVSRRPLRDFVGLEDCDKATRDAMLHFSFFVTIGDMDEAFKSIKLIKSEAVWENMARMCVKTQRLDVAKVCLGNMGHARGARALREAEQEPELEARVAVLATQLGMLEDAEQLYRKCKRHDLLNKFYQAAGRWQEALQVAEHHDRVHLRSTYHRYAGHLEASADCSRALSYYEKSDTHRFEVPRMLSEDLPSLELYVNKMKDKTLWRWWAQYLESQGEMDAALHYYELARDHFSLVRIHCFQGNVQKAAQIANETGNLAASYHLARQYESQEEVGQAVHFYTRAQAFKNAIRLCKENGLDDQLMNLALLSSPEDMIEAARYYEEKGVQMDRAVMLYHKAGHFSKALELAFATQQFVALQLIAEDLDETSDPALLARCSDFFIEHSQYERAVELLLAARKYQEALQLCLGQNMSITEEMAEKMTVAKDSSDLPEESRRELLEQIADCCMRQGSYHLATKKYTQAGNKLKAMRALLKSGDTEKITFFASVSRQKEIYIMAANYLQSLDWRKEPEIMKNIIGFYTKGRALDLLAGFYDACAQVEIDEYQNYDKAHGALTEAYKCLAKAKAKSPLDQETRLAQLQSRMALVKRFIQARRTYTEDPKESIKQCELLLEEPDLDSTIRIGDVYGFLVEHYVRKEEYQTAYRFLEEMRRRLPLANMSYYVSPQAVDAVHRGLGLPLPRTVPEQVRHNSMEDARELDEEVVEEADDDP

B1: IFT144 with C-terminal TEV site and FLAG tag (IFT144^FLAG) (natural protein, human, UniProt Q8NEZ3 1-1342, looked up)
chain: MKRIFSLLEKTWLGAPIQFAWQKTSGNYLAVTGADYIVKIFDRHGQKRSEINLPGNCVAMDWDKDGDVLAVIAEKSSCIYLWDANTNKTSQLDNGMRDQMSFLLWSKVGSFLAVGTVKGNLLIYNHQTSRKIPVLGKHTKRITCGCWNAENLLALGGEDKMITVSNQEGDTIRQTQVRSEPSNMQFFLMKMDDRTSAAESMISVVLGKKTLFFLNLNEPDNPADLEFQQDFGNIVCYNWYGDGRIMIGFSCGHFVVISTHTGELGQEIFQARNHKDNLTSIAVSQTLNKVATCGDNCIKIQDLVDLKDMYVILNLDEENKGLGTLSWTDDGQLLALSTQRGSLHVFLTKLPILGDACSTRIAYLTSLLEVTVANPVEGELPITVSVDVEPNFVAVGLYHLAVGMNNRAWFYVLGENAVKKLKDMEYLGTVASICLHSDYAAALFEGKVQLHLIESEILDAQEERETRLFPAVDDKCRILCHALTSDFLIYGTDTGVVQYFYIEDWQFVNDYRHPVSVKKIFPDPNGTRLVFIDEKSDGFVYCPVNDATYEIPDFSPTIKGVLWENWPMDKGVFIAYDDDKVYTYVFHKDTIQGAKVILAGSTKVPFAHKPLLLYNGELTCQTQSGKVNNIYLSTHGFLSNLKDTGPDELRPMLAQNLMLKRFSDAWEMCRILNDEAAWNELARACLHHMEVEFAIRVYRRIGNVGIVMSLEQIKGIEDYNLLAGHLAMFTNDYNLAQDLYLASSCPIAALEMRRDLQHWDSALQLAKHLAPDQIPFISKEYAIQLEFAGDYVNALAHYEKGITGDNKEHDEACLAGVAQMSIRMGDIRRGVNQALKHPSRVLKRDCGAILENMKQFSEAAQLYEKGLYYDKAASVYIRSKNWAKVGDLLPHVSSPKIHLQYAKAKEADGRYKEAVVAYENAKQWQSVIRIYLDHLNNPEKAVNIVRETQSLDGAKMVARFFLQLGDYGSAIQFLVMSKCNNEAFTLAQQHNKMEIYADIIGSEDTTNEDYQSIALYFEGEKRYLQAGKFFLLCGQYSRALKHFLKCPSSEDNVAIEMAIETVGQAKDELLTNQLIDHLLGENDGMPKDAKYLFRLYMALKQYREAAQTAIIIAREEQSAGNYRNAHDVLFSMYAELKSQKIKIPSEMATNLMILHSYILVKIHVKNGDHMKGARMLIRVANNISKFPSHIVPILTSTVIECHRAGLKNSAFSFAAMLMRPEYRSKIDAKYKKKIEGMVRRPDISEIEEATTPCPFCKFLLPECELLCPGCKNSIPYCIATGRHMLKDDWTVCPHCDFPALYSELKIMLNTESTCPMCSERLNAAQLKKISDCTQYLRTEEEL
Question: Does B1 bind?
Answer: Result: binds
